According to patent US6124449:

Columns and labels:
[1] = molecular target: TGF-beta1 (hTGF-beta1) (Homo sapiens) (UniProt P01137); experiment: cell_activity; conditions: 2'-F C and U; MLEC assay; sequence contains N; column inferred
[2] = molecular target: TGF-beta1 (hTGF-beta1) (Homo sapiens) (UniProt P01137); experiment: filter

Sequence of TGF-beta1 (hTGF-beta1) (Homo sapiens) (P01137 279-390): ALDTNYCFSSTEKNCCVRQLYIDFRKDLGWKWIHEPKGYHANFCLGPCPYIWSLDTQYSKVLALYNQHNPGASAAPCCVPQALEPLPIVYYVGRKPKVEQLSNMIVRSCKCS

Sequence: GGGAGGACGAUGCGGGACCNUUGUNUGCGAUUCAACUCGUAGGUCUUCUCACGUGCAGACGACUCGCCCGA [40-75]
- Ki [1]: 2.25 nM

Sequence: GGGAGGACGAUGCGGNNNNNNNNNNNNNNNNNNNNNNNNNNNNNNNNNNNNNNNNCAGACGACUCGCCCGA [random 40N7 RNA pool]
- Kd ([2]; 2'-F C and U (RNA transcript of template), random 2'-F RNA, DPBS, 1 mM MgCl2, 37 C): 10 nM

Sequence: GGGAGGACGAUGCGGUUAACCNUAAAUACGGCUUGANUUCUUCCGCAGACGACUCGCCCGA [30-19]
- Kd ([2]; 2'-F C and U, biphasic, Kd1 5.7±1.9 nM): 0.346 nM
